This passage reports Ki results from patent US20080026998 (published 2008).

Substitutions are numbered along the chain they refer to. Names and notes keep the numbering of the source. Read-outs that look alike come from different tables or passages of the source.

Assay [1] has as its target T1, plasmin (human, UniProt P00747).
T1 chain: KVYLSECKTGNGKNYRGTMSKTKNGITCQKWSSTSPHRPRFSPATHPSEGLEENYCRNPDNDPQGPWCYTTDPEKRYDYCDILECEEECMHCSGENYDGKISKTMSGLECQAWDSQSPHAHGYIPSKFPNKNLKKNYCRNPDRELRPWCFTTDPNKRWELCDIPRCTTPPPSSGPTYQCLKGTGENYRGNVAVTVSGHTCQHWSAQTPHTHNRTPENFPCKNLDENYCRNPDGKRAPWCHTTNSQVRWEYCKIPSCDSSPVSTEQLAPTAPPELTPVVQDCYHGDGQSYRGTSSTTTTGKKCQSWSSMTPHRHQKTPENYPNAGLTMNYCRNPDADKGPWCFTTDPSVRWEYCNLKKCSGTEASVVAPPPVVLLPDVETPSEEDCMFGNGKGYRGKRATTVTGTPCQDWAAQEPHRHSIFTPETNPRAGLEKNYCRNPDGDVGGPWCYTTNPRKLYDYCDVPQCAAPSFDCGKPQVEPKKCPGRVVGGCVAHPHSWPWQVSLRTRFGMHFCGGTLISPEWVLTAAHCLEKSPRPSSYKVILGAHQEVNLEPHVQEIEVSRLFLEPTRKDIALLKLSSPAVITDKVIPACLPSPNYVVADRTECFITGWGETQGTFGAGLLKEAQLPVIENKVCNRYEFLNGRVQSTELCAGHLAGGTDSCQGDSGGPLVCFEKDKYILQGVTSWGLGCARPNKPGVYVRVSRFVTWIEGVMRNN

The target of assay [2] is T1, plasmin.
Assay [3] concerns the target T1, plasmin.
Assay [4] deals with T1, plasmin.
Assay [5] addresses T1, plasmin.

B1: KD1 wild-type (protein)
chain: DAAQEPTGNNAEICLLPLDYGPCRALLLRYYYDRYTQSCRQFLYGGCEGNANNFYTWEACDDACWRIEKVPKV
Turning to B1, the Ki – broadly, the dissociation constant of the complex between target and ligand, obtained from inhibition or displacement – in assay [1] turned out to be 5.3 nM; in assay [2], 6.4 nM; in assay [3] it was 7.5 nM; in assay [4] it was 9.7 nM.

B2: KD1 R24K/L26R (protein)
chain: B1 chain with R24K, L26R
As to B2, the Ki in assay [5] stood at 2.2 nM; in assay [1], 0.625 nM; in assay [2], 1.25 nM; in assay [3], 1.5 nM; in assay [4] it was 1.06 nM.

B3: KD1 R24K (protein)
chain: B1 chain with R24K
As for B3, the Ki was 1.1 nM in assay [1], 1.02 nM in assay [2], 4.6 nM in assay [3] and 1.33 nM in assay [4].
